Assay [1] deals with T1, Human C3 (human, UniProt P01024 23-1663).
T1 construct: In SPR the bought human C3 was immobilised on CM5 chips by amine coupling; In the haemolysis assay the C3 is that of diluted human serum; also called complement C3
As to the kind of experiment: SPR, C3 immobilised. How it is done: Surface plasmon resonance (SPR) was used to characterize peptides with respect to their binding affinity (Kd) for C3. Human C3 (Complement tech cat #A1 13c) was immobilised on individual flow cells of CM5 sensor chips (GE Healthcare) using standard amine coupling to a density of approximately 3000 resonance units (RU) in a buffer consisting of 10 mM phosphate pH 7.4, 150 mM NaCl, 0.05% Tween20.
For interaction experiments a multi-cycle experiment approach was used and performed using either a Biacore™ T200 or Biacore™ X100 instrument (GE Healthcare) at 25° C. Peptides were injected in increasing concentration series (5-8 different concentrations) for 60-120 s at a flow rate of 30 μL/min in a buffer consisting of 10 mM Tris buffer at pH 7.4, with 150 mM NaCl and 0.05% Tween20. This was followed by a dissociation period for up to 10 min. The C3 surface was regenerated between runs by a 45 s injection of 3 M MgCl₂.
Sensorgrams were double-referenced (reference surface, blanks) prior to analysis of the kinetic profiles by globally fitting data to a 1:1 Langmuir binding model to obtain association and dissociation rates for calculation of the equilibrium dissociation constant Kd. Each peptide was tested at in at least 2 independent experiments.

The target of assay [2] is T1, Human C3. As to the kind of experiment: cell-based or functional assay.

Starred links: 1 amine or outer side, 2 acyl side, 3 side chain; linkers in the order of their positions; H or OH if unused. Positions of bridges follow the written chain, without caps; N, C: chain ends. Non-standard residues stand in square brackets, D forms with d. Groups on a side chain read outwards from the residue. *: point of attachment. Trp(1-Me) = Cn1cc(C[C@H](N)C(=O)O)c2ccccc21; C18 diacid = O=C(O)CCCCCCCCCCCCCCCCC(=O)*; C16 diacid = O=C(O)CCCCCCCCCCCCCCC(=O)*; γGlu = O=C(O)[C@H](CCC(=O)[*:2])N[*:1]; hCys = N[C@@H](CCS)C(=O)O; AEEA = NCCOCCOCC(=O)O; Sar = CNCC(=O)O

T1 sequence (P01024 23-1663 limits assumed): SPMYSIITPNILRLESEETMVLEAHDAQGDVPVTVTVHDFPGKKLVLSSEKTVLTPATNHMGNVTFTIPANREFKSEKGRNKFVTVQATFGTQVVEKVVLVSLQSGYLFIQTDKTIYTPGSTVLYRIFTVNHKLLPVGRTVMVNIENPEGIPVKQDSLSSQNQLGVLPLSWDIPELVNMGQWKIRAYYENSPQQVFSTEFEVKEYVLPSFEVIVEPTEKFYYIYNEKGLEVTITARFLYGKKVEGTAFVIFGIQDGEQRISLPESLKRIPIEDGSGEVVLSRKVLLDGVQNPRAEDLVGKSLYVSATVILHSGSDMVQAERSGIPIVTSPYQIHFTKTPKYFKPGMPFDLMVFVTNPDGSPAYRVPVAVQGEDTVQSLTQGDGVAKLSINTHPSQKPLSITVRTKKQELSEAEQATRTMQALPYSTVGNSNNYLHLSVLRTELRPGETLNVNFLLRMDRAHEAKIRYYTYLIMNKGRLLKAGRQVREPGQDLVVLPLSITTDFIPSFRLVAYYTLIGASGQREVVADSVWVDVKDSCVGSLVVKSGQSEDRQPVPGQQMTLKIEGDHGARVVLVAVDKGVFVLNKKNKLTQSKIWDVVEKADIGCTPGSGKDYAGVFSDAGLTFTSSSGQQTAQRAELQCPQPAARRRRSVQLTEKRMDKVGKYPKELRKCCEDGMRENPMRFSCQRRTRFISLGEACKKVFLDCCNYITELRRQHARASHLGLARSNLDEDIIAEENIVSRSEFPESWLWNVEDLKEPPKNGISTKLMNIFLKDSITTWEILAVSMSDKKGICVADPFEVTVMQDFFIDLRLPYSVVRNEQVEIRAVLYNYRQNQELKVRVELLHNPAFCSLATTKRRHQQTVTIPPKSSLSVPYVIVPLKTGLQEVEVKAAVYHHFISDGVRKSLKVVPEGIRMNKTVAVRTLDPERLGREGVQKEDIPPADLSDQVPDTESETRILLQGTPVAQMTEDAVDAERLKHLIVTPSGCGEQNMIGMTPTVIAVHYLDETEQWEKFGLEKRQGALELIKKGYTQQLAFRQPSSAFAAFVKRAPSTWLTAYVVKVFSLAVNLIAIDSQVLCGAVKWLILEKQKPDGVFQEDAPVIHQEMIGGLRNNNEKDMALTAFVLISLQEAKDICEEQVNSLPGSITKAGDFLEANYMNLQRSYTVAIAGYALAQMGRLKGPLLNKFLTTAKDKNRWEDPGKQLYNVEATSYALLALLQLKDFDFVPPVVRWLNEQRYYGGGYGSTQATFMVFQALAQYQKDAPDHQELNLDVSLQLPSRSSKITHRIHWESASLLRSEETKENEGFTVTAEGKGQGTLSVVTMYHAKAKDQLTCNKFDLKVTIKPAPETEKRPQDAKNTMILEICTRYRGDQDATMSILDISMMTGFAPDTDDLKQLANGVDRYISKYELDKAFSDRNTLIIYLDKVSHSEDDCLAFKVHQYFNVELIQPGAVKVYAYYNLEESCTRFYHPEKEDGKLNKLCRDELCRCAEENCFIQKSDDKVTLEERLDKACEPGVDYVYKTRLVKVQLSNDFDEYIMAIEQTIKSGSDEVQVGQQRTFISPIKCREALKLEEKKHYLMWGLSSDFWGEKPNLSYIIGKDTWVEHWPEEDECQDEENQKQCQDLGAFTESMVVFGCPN

For the molecule Ac-SEFCI[Trp(1-Me)]QDWGEHRC[Sar]EGE[AEEA]ESK([γGlu-γGlu-C18 diacid])-NH2 (disulfide 4-14) [Compound 140], binding in assay [1] was characterised by a dissociation constant (Kd) of 7.6 nM. The “IC50[nM], inhibition of hemolysis” value in assay [2] was less than 100 nM.

B1: Compound 165 (peptide)
peptide: Ac-SEF[hCys]I[Trp(1-Me)]QDWGEHRATEGE[AEEA]ESK([γGlu-C18 diacid])-NH2
modifications: thioether 4-14
SMILES: CC[C@H](C)[C@@H]1NC(=O)[C@@H](NC(=O)[C@H](Cc2ccccc2)NC(=O)[C@H](CCC(=O)O)NC(=O)[C@H](CO)NC(C)=O)CCSC[C@@H](C(=O)N[C@H](C(=O)N[C@@H](CCC(=O)O)C(=O)NCC(=O)N[C@@H](CCC(=O)O)C(=O)NCCOCCOCC(=O)N[C@@H](CCC(=O)O)C(=O)N[C@@H](CO)C(=O)N[C@@H](CCCCNC(=O)CC[C@H](NC(=O)CCCCCCCCCCCCCCCCC(=O)O)C(=O)O)C(N)=O)[C@@H](C)O)NC(=O)[C@H](CCCNC(=N)N)NC(=O)[C@H](Cc2c[nH]cn2)NC(=O)[C@H](CCC(=O)O)NC(=O)CNC(=O)[C@H](Cc2c[nH]c3ccccc23)NC(=O)[C@H](CC(=O)O)NC(=O)[C@H](CCC(N)=O)NC(=O)[C@H](Cc2cn(C)c3ccccc23)NC1=O
As to B1, the equilibrium dissociation constant (Kd) (commonly a measure of binding affinity in units of concentration) in assay [1] stood at 20.7 nM. In assay [2], the “IC50[nM], inhibition of hemolysis” value was less than 250 nM.

B2: Compound 150 (peptide)
peptide: SEFAIWQDWGEHRCGEGEXESK
modifications: not fully specified; N-acetyl; C-terminal amide; delta-cystathionine (Ctt2) thioether bridge A4-hCys14 (hCys written C); W6 is 1-Me-Trp; G10 is Sar; G15 is Sar; X19 is Peg3; K22 side chain bears [17-carboxy-heptadecanoyl][γGlu]G[γGlu]
On to B2, for which the Kd in assay [1] came out at 0.56 nM. The “IC50[nM], inhibition of hemolysis” value in assay [2] is less than 100 nM.
Molecule Ac-SEFCI[Trp(1-Me)]QDWGEHRCTEGE[AEEA]ESK([γGlu-C18 diacid])-NH2 (disulfide 4-14) [Compound 142] showed a Kd in assay [1] of 4.8 nM. For the same molecule, the “IC50[nM], inhibition of hemolysis” value in assay [2] was less than 100 nM.

B3: Compound 141 (peptide)
peptide: Ac-SEFCI[Trp(1-Me)]QDWGEHRC[Sar]EGESESK([γGlu-C18 diacid])-NH2
modifications: disulfide 4-14
SMILES: CC[C@H](C)[C@@H]1NC(=O)[C@@H](NC(=O)[C@H](Cc2ccccc2)NC(=O)[C@H](CCC(=O)O)NC(=O)[C@H](CO)NC(C)=O)CSSC[C@@H](C(=O)N(C)CC(=O)N[C@@H](CCC(=O)O)C(=O)NCC(=O)N[C@@H](CCC(=O)O)C(=O)N[C@@H](CO)C(=O)N[C@@H](CCC(=O)O)C(=O)N[C@@H](CO)C(=O)N[C@@H](CCCCNC(=O)CC[C@H](NC(=O)CCCCCCCCCCCCCCCCC(=O)O)C(=O)O)C(N)=O)NC(=O)[C@H](CCCNC(=N)N)NC(=O)[C@H](Cc2c[nH]cn2)NC(=O)[C@H](CCC(=O)O)NC(=O)CNC(=O)[C@H](Cc2c[nH]c3ccccc23)NC(=O)[C@H](CC(=O)O)NC(=O)[C@H](CCC(N)=O)NC(=O)[C@H](Cc2cn(C)c3ccccc23)NC1=O
Regarding B3, binding in assay [1] was put at a Kd of 6.6 nM. Moreover, the “IC50[nM], inhibition of hemolysis” value in assay [2] is less than 100 nM.

B4: Compound 67 (peptide)
peptide: Ac-SEFCI[Trp(1-Me)]QDWGEHRCTGAES-NH2
modifications: disulfide 4-14
SMILES: CC[C@H](C)[C@@H]1NC(=O)[C@@H](NC(=O)[C@H](Cc2ccccc2)NC(=O)[C@H](CCC(=O)O)NC(=O)[C@H](CO)NC(C)=O)CSSC[C@@H](C(=O)N[C@H](C(=O)NCC(=O)N[C@@H](C)C(=O)N[C@@H](CCC(=O)O)C(=O)N[C@@H](CO)C(N)=O)[C@@H](C)O)NC(=O)[C@H](CCCNC(=N)N)NC(=O)[C@H](Cc2c[nH]cn2)NC(=O)[C@H](CCC(=O)O)NC(=O)CNC(=O)[C@H](Cc2c[nH]c3ccccc23)NC(=O)[C@H](CC(=O)O)NC(=O)[C@H](CCC(N)=O)NC(=O)[C@H](Cc2cn(C)c3ccccc23)NC1=O
On to B4, for which, in assay [1], the Kd was found to be 0.68 nM. The “IC50[nM], inhibition of hemolysis” value in assay [2] is less than 100 nM.
As for Ac-SEFCI[Trp(1-Me)]QDWGEHRC[Sar]EGE[AEEA][AEEA]K([γGlu-Gly-γGlu-C16 diacid])-NH2 (disulfide 4-14) [Compound 127], in assay [1], the Kd was 8.5 nM. The “IC50[nM], inhibition of hemolysis” value in assay [2] was less than 100 nM.

B5: Compound 147 (peptide)
peptide: SEFAIWQDWGEHRCGEXXK
modifications: not fully specified; N-acetyl; C-terminal amide; delta-cystathionine (Ctt2) thioether bridge A4-hCys14 (hCys written C); W6 is 1-Me-Trp; G10 is Sar; G15 is Sar; X17 and X18 are Peg3; K19 side chain bears [17-carboxy-heptadecanoyl][γGlu]G[γGlu]
As to B5, the Kd in assay [1] amounted to 0.71 nM. In assay [2], the “IC50[nM], inhibition of hemolysis” value is less than 100 nM.
The corresponding values for Ac-SEF[hCys]I[Trp(1-Me)]QDW[Sar]EHRA[Sar]E[AEEA][AEEA]K([γGlu-Gly-γGlu-C18 diacid])-NH2 (thioether 4-14) [Compound 164] are 6.4 nM and less than 100 nM.

B6: Compound 122 (peptide)
peptide: Ac-SEYCI[Trp(1-Me)]QEWGEHRC[Sar]EGAK([AEEA-γGlu-AEEA-Gly-γGlu-C18 diacid])-NH2
modifications: disulfide 4-14
SMILES: CC[C@H](C)[C@@H]1NC(=O)[C@@H](NC(=O)[C@H](Cc2ccc(O)cc2)NC(=O)[C@H](CCC(=O)O)NC(=O)[C@H](CO)NC(C)=O)CSSC[C@@H](C(=O)N(C)CC(=O)N[C@@H](CCC(=O)O)C(=O)NCC(=O)N[C@@H](C)C(=O)N[C@@H](CCCCNC(=O)COCCOCCNC(=O)CC[C@H](NC(=O)COCCOCCNC(=O)CNC(=O)CC[C@H](NC(=O)CCCCCCCCCCCCCCCCC(=O)O)C(=O)O)C(=O)O)C(N)=O)NC(=O)[C@H](CCCNC(=N)N)NC(=O)[C@H](Cc2c[nH]cn2)NC(=O)[C@H](CCC(=O)O)NC(=O)CNC(=O)[C@H](Cc2c[nH]c3ccccc23)NC(=O)[C@H](CCC(=O)O)NC(=O)[C@H](CCC(N)=O)NC(=O)[C@H](Cc2cn(C)c3ccccc23)NC1=O
With B6, binding in assay [1] was put at a Kd of 63 nM. Moreover, the “IC50[nM], inhibition of hemolysis” value in assay [2] is less than 500 nM.
The molecule Ac-SEFAI[Trp(1-Me)]QDWGEHR[hCys][Sar]EGAK([AEEA-γGlu-AEEA-Gly-γGlu-C18 diacid])-NH2 (thioether 4-14; not fully specified) [Compound 154] displayed a Kd in assay [1] of 2.4 nM. Also, the “IC50[nM], inhibition of hemolysis” value in assay [2] was less than 100 nM.

B7: Compound 139 (peptide)
peptide: Ac-SEFCI[Trp(1-Me)]QDWGEHRC[Sar]EGESESK([γGlu-Gly-γGlu-C18 diacid])-NH2
modifications: disulfide 4-14
SMILES: CC[C@H](C)[C@@H]1NC(=O)[C@@H](NC(=O)[C@H](Cc2ccccc2)NC(=O)[C@H](CCC(=O)O)NC(=O)[C@H](CO)NC(C)=O)CSSC[C@@H](C(=O)N(C)CC(=O)N[C@@H](CCC(=O)O)C(=O)NCC(=O)N[C@@H](CCC(=O)O)C(=O)N[C@@H](CO)C(=O)N[C@@H](CCC(=O)O)C(=O)N[C@@H](CO)C(=O)N[C@@H](CCCCNC(=O)CC[C@H](NC(=O)CNC(=O)CC[C@H](NC(=O)CCCCCCCCCCCCCCCCC(=O)O)C(=O)O)C(=O)O)C(N)=O)NC(=O)[C@H](CCCNC(=N)N)NC(=O)[C@H](Cc2c[nH]cn2)NC(=O)[C@H](CCC(=O)O)NC(=O)CNC(=O)[C@H](Cc2c[nH]c3ccccc23)NC(=O)[C@H](CC(=O)O)NC(=O)[C@H](CCC(N)=O)NC(=O)[C@H](Cc2cn(C)c3ccccc23)NC1=O
The molecule B7 had a dissociation constant Kd in assay [1] of 7.4 nM. Further, the “IC50[nM], inhibition of hemolysis” value in assay [2] is less than 100 nM.

B8: Compound 130 (peptide)
peptide: Ac-SEFCI[Trp(1-Me)]QDWGEHRCTEGEGGGK([γGlu-Gly-γGlu-C18 diacid])-NH2
modifications: disulfide 4-14
SMILES: CC[C@H](C)[C@@H]1NC(=O)[C@@H](NC(=O)[C@H](Cc2ccccc2)NC(=O)[C@H](CCC(=O)O)NC(=O)[C@H](CO)NC(C)=O)CSSC[C@@H](C(=O)N[C@H](C(=O)N[C@@H](CCC(=O)O)C(=O)NCC(=O)N[C@@H](CCC(=O)O)C(=O)NCC(=O)NCC(=O)NCC(=O)N[C@@H](CCCCNC(=O)CC[C@H](NC(=O)CNC(=O)CC[C@H](NC(=O)CCCCCCCCCCCCCCCCC(=O)O)C(=O)O)C(=O)O)C(N)=O)[C@@H](C)O)NC(=O)[C@H](CCCNC(=N)N)NC(=O)[C@H](Cc2c[nH]cn2)NC(=O)[C@H](CCC(=O)O)NC(=O)CNC(=O)[C@H](Cc2c[nH]c3ccccc23)NC(=O)[C@H](CC(=O)O)NC(=O)[C@H](CCC(N)=O)NC(=O)[C@H](Cc2cn(C)c3ccccc23)NC1=O
Take B8: in assay [1], binding was characterised by a dissociation constant (Kd) of 4.4 nM. Further, the “IC50[nM], inhibition of hemolysis” value in assay [2] is less than 100 nM.

B9: Compound 157 (peptide)
peptide: Ac-SEFAI[Trp(1-Me)]QDWGEHR[hCys]TEGEGGGK([γGlu-Gly-γGlu-C18 diacid])-NH2
modifications: thioether 4-14
SMILES: CC[C@H](C)[C@@H]1NC(=O)[C@@H](NC(=O)[C@H](Cc2ccccc2)NC(=O)[C@H](CCC(=O)O)NC(=O)[C@H](CO)NC(C)=O)CSCC[C@@H](C(=O)N[C@H](C(=O)N[C@@H](CCC(=O)O)C(=O)NCC(=O)N[C@@H](CCC(=O)O)C(=O)NCC(=O)NCC(=O)NCC(=O)N[C@@H](CCCCNC(=O)CC[C@H](NC(=O)CNC(=O)CC[C@H](NC(=O)CCCCCCCCCCCCCCCCC(=O)O)C(=O)O)C(=O)O)C(N)=O)[C@@H](C)O)NC(=O)[C@H](CCCNC(=N)N)NC(=O)[C@H](Cc2c[nH]cn2)NC(=O)[C@H](CCC(=O)O)NC(=O)CNC(=O)[C@H](Cc2c[nH]c3ccccc23)NC(=O)[C@H](CC(=O)O)NC(=O)[C@H](CCC(N)=O)NC(=O)[C@H](Cc2cn(C)c3ccccc23)NC1=O
On to B9, for which the Kd in assay [1] was found to be 3.5 nM. In addition, the “IC50[nM], inhibition of hemolysis” value in assay [2] is less than 100 nM.

The values above are taken from US20220306695A1, “COMPSTATIN ANALOGUES AND THEIR MEDICAL USES” (priority 2019, published 2022).
